Values of other authors as cited in article PMC2820514.

Target: CaMKII monomer (UniProt Q9UQM7)

CaMKII monomer (from UniProt Q9UQM7)
Kd: 1300 nM
